# Test results from patent EP1516629B1 (Genentech, Inc., dated 2013).
# “And” between values parts separate entries of the source, which are not always exact repeats. Equal entries are not always repeated. Where two headings read alike, the source gives them in different places.
# T1: rhesus CD11a (rhesus, UniProt H9Z8N3 26-1169)
# T1 construct: whole, on cells; also called rhCD11a
# T1 sequence: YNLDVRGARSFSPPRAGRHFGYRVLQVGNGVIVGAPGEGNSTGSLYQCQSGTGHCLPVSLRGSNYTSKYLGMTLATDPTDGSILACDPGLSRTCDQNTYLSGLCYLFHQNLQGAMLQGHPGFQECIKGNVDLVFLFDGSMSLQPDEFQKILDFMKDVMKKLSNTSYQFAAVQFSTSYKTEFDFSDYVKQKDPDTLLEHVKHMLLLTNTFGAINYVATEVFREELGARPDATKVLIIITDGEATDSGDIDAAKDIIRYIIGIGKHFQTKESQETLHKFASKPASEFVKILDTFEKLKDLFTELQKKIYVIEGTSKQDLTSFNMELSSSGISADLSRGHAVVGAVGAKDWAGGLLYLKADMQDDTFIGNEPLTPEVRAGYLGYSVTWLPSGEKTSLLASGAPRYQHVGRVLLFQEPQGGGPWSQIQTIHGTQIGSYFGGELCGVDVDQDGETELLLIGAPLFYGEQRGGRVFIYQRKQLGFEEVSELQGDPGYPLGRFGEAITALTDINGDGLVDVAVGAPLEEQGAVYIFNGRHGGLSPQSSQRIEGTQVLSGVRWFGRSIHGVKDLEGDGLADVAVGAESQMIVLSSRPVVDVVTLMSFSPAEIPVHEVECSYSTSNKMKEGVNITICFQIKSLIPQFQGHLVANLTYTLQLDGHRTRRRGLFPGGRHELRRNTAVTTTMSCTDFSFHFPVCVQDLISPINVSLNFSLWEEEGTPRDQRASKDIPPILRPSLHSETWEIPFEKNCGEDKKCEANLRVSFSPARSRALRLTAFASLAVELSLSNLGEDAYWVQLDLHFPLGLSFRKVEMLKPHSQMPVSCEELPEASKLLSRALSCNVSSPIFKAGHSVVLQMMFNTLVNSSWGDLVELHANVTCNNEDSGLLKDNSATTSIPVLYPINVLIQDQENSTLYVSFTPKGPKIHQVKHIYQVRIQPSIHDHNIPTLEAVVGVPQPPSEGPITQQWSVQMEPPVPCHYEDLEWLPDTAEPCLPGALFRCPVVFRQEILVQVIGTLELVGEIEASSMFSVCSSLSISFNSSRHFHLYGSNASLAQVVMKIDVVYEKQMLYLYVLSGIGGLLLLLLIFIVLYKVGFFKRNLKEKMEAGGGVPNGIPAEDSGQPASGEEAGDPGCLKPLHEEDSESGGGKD
# T2: rhesus-human chimeric CD11a (Rh/HuCD11a) (human (I-domain mutated to rhesus), UniProt P20701 26-1170)
# T2 sequence (looked up): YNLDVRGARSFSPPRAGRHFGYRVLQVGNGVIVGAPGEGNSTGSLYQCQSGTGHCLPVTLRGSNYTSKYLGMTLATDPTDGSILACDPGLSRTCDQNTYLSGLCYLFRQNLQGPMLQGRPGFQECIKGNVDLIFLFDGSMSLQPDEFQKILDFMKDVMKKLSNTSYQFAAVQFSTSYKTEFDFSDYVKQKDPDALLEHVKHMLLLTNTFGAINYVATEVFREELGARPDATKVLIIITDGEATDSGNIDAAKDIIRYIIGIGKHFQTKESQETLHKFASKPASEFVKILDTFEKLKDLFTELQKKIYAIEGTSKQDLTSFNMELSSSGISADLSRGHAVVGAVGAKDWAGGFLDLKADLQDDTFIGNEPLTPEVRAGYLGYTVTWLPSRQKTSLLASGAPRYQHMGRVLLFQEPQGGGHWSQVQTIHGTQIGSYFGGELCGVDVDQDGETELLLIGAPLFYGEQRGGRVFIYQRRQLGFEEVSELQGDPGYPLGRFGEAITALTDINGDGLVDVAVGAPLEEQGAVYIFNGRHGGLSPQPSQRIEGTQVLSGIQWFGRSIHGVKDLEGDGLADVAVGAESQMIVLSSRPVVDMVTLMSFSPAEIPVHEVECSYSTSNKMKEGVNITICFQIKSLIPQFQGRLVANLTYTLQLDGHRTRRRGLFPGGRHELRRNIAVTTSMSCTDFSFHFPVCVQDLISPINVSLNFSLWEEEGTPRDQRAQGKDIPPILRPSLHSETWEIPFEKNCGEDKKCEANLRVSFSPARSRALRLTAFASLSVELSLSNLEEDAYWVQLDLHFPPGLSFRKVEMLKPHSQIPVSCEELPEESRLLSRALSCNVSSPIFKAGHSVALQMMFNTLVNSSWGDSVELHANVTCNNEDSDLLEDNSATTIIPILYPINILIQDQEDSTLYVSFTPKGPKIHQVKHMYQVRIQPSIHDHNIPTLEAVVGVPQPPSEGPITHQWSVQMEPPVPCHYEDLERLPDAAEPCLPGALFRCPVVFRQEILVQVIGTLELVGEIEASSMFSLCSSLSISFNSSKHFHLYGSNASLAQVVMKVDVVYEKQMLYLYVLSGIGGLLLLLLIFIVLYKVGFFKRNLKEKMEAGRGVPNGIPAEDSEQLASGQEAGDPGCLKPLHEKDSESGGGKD
# B1: rhesus-binding MHM24 (RhIgG1), variant H2C12 (antibody, V domains shown)
# VH: EVQLVESGGGLVQPGGSLRLSCAASGYSFTGHWMNWVRQAPGKGLEWVGMIAPASSSTRYNQKFKDRFTISVDKSKNTLYLQMNSLRAEDTAVYYCARGIYFYGTTYFDYWGQGTLVTVSS
# VL: DIQMTQSPSSLSASVGDRVTITCRASKTISKYLAWYQQKPGKAPKLLIYSGSTLQSGVPSRFSGSGSGTDFTLTISSLQPEDFATYYCQQHNEYPLTFGQGTKVEIKR
# notes: Human IgG1; also called H2C l2; H2Cl2
# B2: humanized MHM24 F(ab)-6 (Fab, V domains shown)
# VH: EVQLVESGGGLVQPGGSLRLSCAASGFSFTGHWMNWVRQAPGKGLEWVGMIHPSDSETRYNQKFKDRFTISVDKSSSTLYLQMNSLRAEDTAVYYCARGIYFYGTTYFDYWGQGTLVTVSS
# VL: DIQMTQSPSSLSASVGDRVTITCRASKTISKYLAWYQQKPGKAPKLLIYSGSTLQSGVPSRFSGSGSGTDFTLTISSLQPEDFATYYCQQHNEYPLTFGQGTKVEIK
# B3: humanized MHM24 F(ab)-7 (Fab, V domains shown)
# VH: EVQLVESGGGLVQPGGSLRLSCAASGYSFTGHWMNWVRQAPGKGLEWVGMIHPSDSETRYNQKFKDRFTISVDKSSSTLYLQMNSLRAEDTAVYYCARGIYFYGTTYFDYWGQGTLVTVSS
# VL: DIQMTQSPSSLSASVGDRVTITCRASKTISKYLAWYQQKPGKAPKLLIYSGSTLQSGVPSRFSGSGSGTDFTLTISSLQPEDFATYYCQQHNEYPLTFGQGTKVEIK
# B4: H2C11 variant IgG1 (antibody, V domains shown)
# VH: EVQLVESGGGLVQPGGSLRLSCAASGYSFTGHWMNWVRQAPGKGLEWVGMIAPASSNTRYNQKFKDRFTISVDKSKNTLYLQMNSLRAEDTAVYYCARGIYFYGTTYFDYWGQGTLVTVSS
# VL: DIQMTQSPSSLSASVGDRVTITCRASKTISKYLAWYQQKPGKAPKLLIYSGSTLQSGVPSRFSGSGSGTDFTLTISSLQPEDFATYYCQQHNEYPLTFGQGTKVEIK
# notes: HuIgG1 variant, human IgG1
# B5: murine MHM24 (antibody, V domains shown)
# VH: EVQLQQPGAELMRPGASVKLSCKASGYSFTGHWMNWVRQRPGQGLEWIGMIHPSDSETRLNQKFKDKATLTVDKSSSSAYMQLSSPTSEDSAVYYCARGIYFYGTTYFDYWGQGTTLTVSS
# VL: DVQITQSPSYLAASPGETISINCRASKTISKYLAWYQEKPGKTNKLLIYSGSTLQSGIPSRFSGSGSGTDFTLTISSLEPEDFAMYYCQQHNEYPLTFGTGTKLELKR
# notes: Murine monoclonal antibody; also called muMHM24; murMHM24
# B6: chimeric MHM24 IgG1 (chIgG1) (antibody, V domains shown)
# VH: EVQLQQPGAELMRPGASVKLSCKASGYSFTGHWMNWVRQRPGQGLEWIGMIHPSDSETRLNQKFKDKATLTVDKSSSSAYMQLSSPTSEDSAVYYCARGIYFYGTTYFDYWGQGTTLTVSS
# VL: DVQITQSPSYLAASPGETISINCRASKTISKYLAWYQEKPGKTNKLLIYSGSTLQSGIPSRFSGSGSGTDFTLTISSLEPEDFAMYYCQQHNEYPLTFGTGTKLELKR
# notes: Murine VL and VH fused to human constant light and heavy (IgG1) chains; also called chimeric IgG1; chlgG1
# B7: humanized MHM24 F(ab)-1 (Fab, V domains shown)
# VH: EVQLVESGGGLVQPGGSLRLSCAASGFSFTGHWMNWVRQAPGKGLEWVGMIHPSDSETRYADSVKGRFTISVDNSKNTLYLQMNSLRAEDTAVYYCARGIYFYGTTYFDYWGQGTLVTVSS
# VL: DIQMTQSPSSLSASVGDRVTITCRASKTISKYLAWYQQKPGKAPKLLIYSGSSLESGVPSRFSGSGSGTDFTLTISSLQPEDFATYYCQQHNEYPLTFGQGTKVEIK
# notes: F(ab) from E. coli (VH-CH1 and kappa light chain)
# B8: humanized MHM24 F(ab)-2 (Fab, V domains shown)
# VH: EVQLVESGGGLVQPGGSLRLSCAASGFSFTGHWMNWVRQAPGKGLEWVGMIHPSDSETRYNQKFKDRFTISVDNSKNTLYLQMNSLRAEDTAVYYCARGIYFYGTTYFDYWGQGTLVTVSS
# VL: DIQMTQSPSSLSASVGDRVTITCRASKTISKYLAWYQQKPGKAPKLLIYSGSSLESGVPSRFSGSGSGTDFTLTISSLQPEDFATYYCQQHNEYPLTFGQGTKVEIK
# notes: F(ab) from E. coli
# Assays:
# [1] = molecular target: T1, rhesus CD11a; test: saturation binding, rhesus leukocytes, donor 1, Kd(app)
# [2] = molecular target: T2, rhesus-human chimeric CD11a (Rh/HuCD11a); test: cell-based or functional assay
# [3] = molecular target: T1, rhesus CD11a; test: cell-based or functional assay
# [4] = molecular target: T1, rhesus CD11a; test: saturation binding, Kd(app)
# [5] = molecular target: T1, rhesus CD11a; test: cell binding EC50 on rhesus CD11a against HuIgG1 on human CD11a
# [6] = molecular target: T1, rhesus CD11a; test: binding to rhesus peripheral blood lymphocytes
# [7] = molecular target: T2, rhesus-human chimeric CD11a (Rh/HuCD11a); test: cell-based or functional assay; remark: listed apart in the source
# [8] = molecular target: T1, rhesus CD11a; test: cell-based or functional assay; remark: listed apart in the source
# [9] = molecular target: T1, rhesus CD11a; test: saturation binding, rhesus leukocytes, donor 3, with 1 mg/ml human IgG1, Kd(app)
# [10] = molecular target: T1, rhesus CD11a; test: binding to rhesus peripheral blood lymphocytes; remark: listed apart in the source
# [11] = molecular target: T1, rhesus CD11a; test: cell-based or functional assay; remark: listed apart in the source
# [12] = molecular target: T3, human CD11a (human, UniProt P20701 26-1170); test: FACScan, Jurkat cells
# T3 construct: whole, on cells; On cells it stands paired with CD18 as LFA-1; also called alpha subunit of LFA-1; LFA-1 (CD11a/CD18)
# [13] = molecular target: T3, human CD11a; test: FACScan, Jurkat cells; remark: listed apart in the source
# [14] = molecular target: T1, rhesus CD11a; test: cell binding EC50, rhesus against human CD11a
# [15] = molecular target: T3, human CD11a; test: cell-based or functional assay
# [16] = molecular target: T3, human CD11a; test: saturation binding of 125I-antibody to human mononuclear cells, Kd(app)
# [17] = molecular target: T3, human CD11a; test: saturation binding, human lymphocytes, donor 2, Kd(app)
# [18] = molecular target: T3, human CD11a; test: saturation binding, human lymphocytes, donor 1, Kd(app)
binder,measurement,setting,value
B1,Kd,[1],3.9 nM
same,"fold down from MHM23, Rh/HuCD11a-293 cells to human keratinocytes",[2],4 fold
same,"fold less efficacious than MHM23, rhesus lymphocytes to human keratinocytes",[3],74 fold
same,"fold less efficacious than MHM23, rhesus lymphocytes to recombinant human ICAM-1",[3],4 fold
same,fold down in Kd from HuIgG1 for human CD11a,[4],~26 fold
same,fold weaker than the EC50 of HuIgG1 for human CD11a,[5],3 to 5 fold
same,Var.EC50/HuIgG1 EC50,[6],0.004 ratio
same,"IC50, blocking of cell adhesion, Rh/HuCD11a:HuK",[7],4.9 nM
same,"IC50, blocking of cell adhesion, RhLy:HuICAM",[8],5.3 nM
same,"IC50, blocking of cell adhesion, RhLy:HuK",[8],119 nM
same,Kd,[9],2.8 nM and 2.7 nM
same,EC50,[10],0.19 nM
same,fold improvement over the EC50 of HuIgG1 for rhesus CD11a,[10],240 to 415 fold
same,"IC50, rhesus mixed lymphocyte response assay",[11],23.4 nM
B2,EC50 F(ab)/EC50 F(ab)-2,[12],0.012 ratio
same,fold improvement in binding over F(ab)-5,[13],4 fold
B3,EC50 F(ab)/EC50 F(ab)-2,[12],0.004 ratio
same,fold improvement in binding over F(ab)-6,[13],3 fold
B4,fold weaker than the EC50 of HuIgG1 for human CD11a,[5],3 to 5 fold
same,Var.EC50/HuIgG1 EC50,[6],0.002 ratio
same,EC50,[10],0.11 nM
same,fold improvement over the EC50 of HuIgG1 for rhesus CD11a,[10],240 to 415 fold
B5,fold reduction in binding against human CD11a,[14],~1000 fold
same,"IC50, blocking of cell adhesion, Jurkat:HuK",[15],0.09 nM
same,Kd,[16],0.15 nM
same,Kd,[17],0.13 nM
same,Kd,[18],0.16 nM
B6,EC50 F(ab)/EC50 F(ab)-2,[12],0.006 ratio
same,EC50,[13],5.2 ng/mL
same,"IC50, blocking of cell adhesion, Jurkat:HuK",[15],0.1 nM
B7,binding result,[12],no binding
B8,EC50,[12],0.771 µg/mL
same,EC50 F(ab)/EC50 F(ab)-2,[12],1 ratio
same,fold weaker EC50 than chimeric IgG1,[13],148 fold
